Test results from patent US20240116999A1, “CONFORMATIONALLY CONSTRAINED GLUCAGON ANALOGUES AND THEIR USE IN GLUCAGON-SINGLE CHAIN INSULIN FUSION PROTEINS” (THE TRUSTEES OF INDIANA UNIVERSITY, priority 2021, published 2024).

Molecular target: glucagon receptor (GCGR)
Assay: cell-based or functional assay

dasiglucagon (Zealand Pharma) (peptide)
EC50, cell-based cyclic AMP (cAMP) activity assay: 1.04 nM
